The values below come from PMC9712074 (Cell Reports, 2022).

For assay [1], the target named is SARS-CoV-2 (WT) Spike RBD Protein (His Tag) (SARS-CoV-2 ancestral (Wuhan-Hu-1), UniProt P0DTC2).
Assay [2] addresses SARS-CoV-2 Omicron BA.1 RBD (SARS-CoV-2 Omicron BA.1, strain).

B1: BD55-5276 (antibody, V domains shown)
VH: EVHLEESGGGLVHPGRSLRLSCAASGFTLDEYAMHWVRRAPGKGLEWVSGISWNSGARGYADSVKGRFTISRDNAKNSLYLQMNSLRAEDTAFYYCAKDNSHGSGTAWDWLDSWGQGTLVTVSS
VL: NFMLTQPHSVSESPGKTVTISCTRSSGTITNNYVQWYRQRPGSSPTTVIFEDNQRPSGVPDRFSGSIDSSSNSASLTISGLKTEDEADYYCQSHDSSNWVFGGGTKLTVL
As for B1, the binding result in assay [1] is on record as “binds”.

B2: BD55-3372 (antibody, V domains shown)
VH: EVHLVESGGGLVKPGGSLRLSCAASGFTFSNYAMNWVRQAPGKGLQWVSSITGSSSFIFYADSVKGRFTIVRDNAQNSLYLQMNSLRDEDTAVYYCARERDDYDTRLDWGQGTLVTVSS
VL: QPMLTQPPSVSGAPGQTVTISCVGSSSNIGAGYEVHWYQQLPGTAPKRLLSGNSDRPSGVPDRFSGSKSGTSASLAITGLQADDEADYYCQSYDSSLSLSAVVFGGGTKLTVL
B2: the binding result in assay [2] is listed as “binds”.

B3: BD55-3152 (antibody, V domains shown)
VH: QVQLVQSGAEVKKPGASVIVSCKASGYRFISHYIHWVRQAPGQGLEWMGKIDPSGRGTTYAQKLQGRVSVTRDTSTSSVYMALSGLRSDDTAVYYCARDRFPLSDPYVWGSPLGGLDVWGQGTTVIVSS
VL: SYDLTQPPSVSVSPGQTARITCSGDALPSQYVYWYQQRPGQAPVLVMYKDSERPPGIPERFSGSTSGTTATLTITGVQAEDEADYYCQSADASTTYHVFGGGTKVTVV
For B3, the binding result in assay [2] is on record as “binds”.
